# Source: patent US20160244499A1 (Stanford University, published 2016)
# T1: γc on human cell lines (Ramos, HH, U937) (human, UniProt P31785 23-369)
# T1 sequence (looked up): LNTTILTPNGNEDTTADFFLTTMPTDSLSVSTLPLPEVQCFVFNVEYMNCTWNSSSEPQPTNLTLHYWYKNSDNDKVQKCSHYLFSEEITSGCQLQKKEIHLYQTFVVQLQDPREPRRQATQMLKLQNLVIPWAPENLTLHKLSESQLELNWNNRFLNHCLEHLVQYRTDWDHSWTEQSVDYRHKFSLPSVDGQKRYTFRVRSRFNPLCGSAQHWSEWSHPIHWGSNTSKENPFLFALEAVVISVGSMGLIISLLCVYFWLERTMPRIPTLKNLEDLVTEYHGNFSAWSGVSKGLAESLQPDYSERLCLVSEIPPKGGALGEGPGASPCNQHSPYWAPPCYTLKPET
# B1: super-4 (IL-4 RGA), free, not bound to IL-4Rα (ligand)
# chain: HKCDITLQEIIKTLNSLTEQKTLCTELTVTDIFAASKNTTEKETFCRAATVLRQFYSHHEKDTRCLGATAQQFHRHKQLIRFLKRLDRNLWGLAGLNSCPVKEANQSTLENFLERLRVIMQSKWFKCGAHHHHHH
# Target: T1, γc on human cell lines (Ramos, HH, U937)
# Test: cell-based or functional assay
binder,measurement,value
B1,"STAT6 phosphorylation in Ramos cells, potency against IL-4",~3 fold
same,"STAT6 phosphorylation in Ramos cells, potency against KFR",~10 fold
